Our source for the stoichiometry N values is paper PMC4588518.

This assay concerns the target LegK4^1–445 (Legionella pneumophila LegK4, residues 1 to 445) (Legionella pneumophila). The experiment in a line: SEC-SAXS. (In general: In gel filtration, larger molecules generally elute earlier.)

Broadly, the stoichiometry N is a count of units in the complex or per binding partner. For “LegK4^1–445 (Legionella pneumophila LegK4, residues 1 to 445) (domain or fragment)”, the stoichiometry N was 2.
